Laboratory results published in the supplement of paper PMC9112550, “Optimization of the antimicrobial peptide Bac7 by deep mutational scanning” (BMC Biology, 2022).

Test system: Escherichia coli TOP10
Assay: shrunken log2 fold change of peptide-encoding DNA abundance (4.5 h post-induction vs induction); higher = less antimicrobial activity (less host growth inhibition)
Details: time post-induction: 4.5 h; library: site-saturation at positions 5, 18, 19, 20
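Also: peptides expressed intracellularly from a pBAD plasmid library in pooled LB shake-flask culture, induced with 0.3% L-arabinose, DNA abundance read by NGS, three biological replicates, DESeq2 with apeglm shrinkage.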

RRIRTRPPRLPRPRPRPFPLPRP
shrunken log2 fold change: -0.147

RRIRNRPPRLPRPRPRPSSRPRP
shrunken log2 fold change: -0.164

RRIRPRPPRLPRPRPRPAFFPRP
shrunken log2 fold change: 0.186

RRIRGRPPRLPRPRPRPVQKPRP
shrunken log2 fold change: 0.434

RRIRVRPPRLPRPRPRPHIEPRP
shrunken log2 fold change: -0.763

RRIRSRPPRLPRPRPRPLEGPRP
shrunken log2 fold change: -0.131

RRIRIRPPRLPRPRPRPSNFPRP
shrunken log2 fold change: -0.335

RRIRWRPPRLPRPRPRPYRAPRP
shrunken log2 fold change: -0.399

RRIRARPPRLPRPRPRPRVAPRP
shrunken log2 fold change: 0.46

RRIRIRPPRLPRPRPRPTLVPRP
shrunken log2 fold change: 0.0386

RRIRNRPPRLPRPRPRPSFDPRP
shrunken log2 fold change: -0.427

RRIRHRPPRLPRPRPRPRYVPRP
shrunken log2 fold change: -0.585

RRIRKRPPRLPRPRPRPWPYPRP
shrunken log2 fold change: -0.146

RRIRLRPPRLPRPRPRPTCSPRP
shrunken log2 fold change: -0.0337

RRIRRRPPRLPRPRPRPDYPPRP
shrunken log2 fold change: 0.0596

RRIRERPPRLPRPRPRPFLSPRP
shrunken log2 fold change: -0.11

RRIRPRPPRLPRPRPRPARQPRP
shrunken log2 fold change: 0.253

RRIRNRPPRLPRPRPRPFCYPRP
shrunken log2 fold change: 0.166

RRIRRRPPRLPRPRPRPGRPPRP
shrunken log2 fold change: 0.259

RRIRLRPPRLPRPRPRPVKGPRP
shrunken log2 fold change: -0.00152

RRIRARPPRLPRPRPRPPVFPRP
shrunken log2 fold change: 0.416

RRIRARPPRLPRPRPRPKKHPRP
shrunken log2 fold change: 0.417

RRIRFRPPRLPRPRPRPESAPRP
shrunken log2 fold change: 0.428

RRIRNRPPRLPRPRPRPCNAPRP
shrunken log2 fold change: -0.0514

RRIRFRPPRLPRPRPRPAEMPRP
shrunken log2 fold change: 0.00299

RRIRVRPPRLPRPRPRPENHPRP
shrunken log2 fold change: -0.187

RRIRCRPPRLPRPRPRPHRIPRP
shrunken log2 fold change: -0.492

RRIRSRPPRLPRPRPRPSLYPRP
shrunken log2 fold change: -0.432

RRIRNRPPRLPRPRPRPEVHPRP
shrunken log2 fold change: -0.0167

RRIRNRPPRLPRPRPRPVREPRP
shrunken log2 fold change: 0.249

RRIRPRPPRLPRPRPRPWEAPRP
shrunken log2 fold change: -0.224

RRIRSRPPRLPRPRPRPTYVPRP
shrunken log2 fold change: -0.098

RRIRIRPPRLPRPRPRPKQHPRP
shrunken log2 fold change: -0.307

RRIRTRPPRLPRPRPRPQYFPRP
shrunken log2 fold change: -0.395

RRIRMRPPRLPRPRPRPDITPRP
shrunken log2 fold change: 2.12

RRIRDRPPRLPRPRPRPGYCPRP
shrunken log2 fold change: -0.658

RRIRWRPPRLPRPRPRPCLRPRP
shrunken log2 fold change: 0.0809

RRIRQRPPRLPRPRPRPRQDPRP
shrunken log2 fold change: 0.243

RRIRDRPPRLPRPRPRPKFHPRP
shrunken log2 fold change: -0.362

RRIRNRPPRLPRPRPRPGWTPRP
shrunken log2 fold change: 0.0174

RRIRQRPPRLPRPRPRPVEDPRP
shrunken log2 fold change: -0.0933

RRIRNRPPRLPRPRPRPLKMPRP
shrunken log2 fold change: -0.136

RRIRVRPPRLPRPRPRPHTCPRP
shrunken log2 fold change: -0.345

RRIRGRPPRLPRPRPRPKLVPRP
shrunken log2 fold change: 0.326

RRIRLRPPRLPRPRPRPKYCPRP
shrunken log2 fold change: 0.0654

RRIRIRPPRLPRPRPRPPYIPRP
shrunken log2 fold change: -0.299

RRIRYRPPRLPRPRPRPERHPRP
shrunken log2 fold change: -0.0384

RRIRERPPRLPRPRPRPWEHPRP
shrunken log2 fold change: -0.221

RRIRDRPPRLPRPRPRPRCDPRP
shrunken log2 fold change: -0.0149

RRIRHRPPRLPRPRPRPNASPRP
shrunken log2 fold change: 0.0449

RRIRSRPPRLPRPRPRPYAYPRP
shrunken log2 fold change: -0.315

RRIRYRPPRLPRPRPRPNVLPRP
shrunken log2 fold change: -0.554

RRIRTRPPRLPRPRPRPKYWPRP
shrunken log2 fold change: -0.254

RRIRFRPPRLPRPRPRPCGNPRP
shrunken log2 fold change: -0.0344

RRIRQRPPRLPRPRPRPAGCPRP
shrunken log2 fold change: 0.409

RRIRFRPPRLPRPRPRPCNSPRP
shrunken log2 fold change: -0.0848

RRIRDRPPRLPRPRPRPWDIPRP
shrunken log2 fold change: -0.0043

RRIRHRPPRLPRPRPRPCKSPRP
shrunken log2 fold change: 0.0139

RRIRFRPPRLPRPRPRPTMIPRP
shrunken log2 fold change: -0.941

RRIRERPPRLPRPRPRPHMSPRP
shrunken log2 fold change: -0.27

RRIRDRPPRLPRPRPRPQRDPRP
shrunken log2 fold change: 0.0917

RRIRPRPPRLPRPRPRPWMCPRP
shrunken log2 fold change: -0.366

RRIRPRPPRLPRPRPRPPQHPRP
shrunken log2 fold change: 0.485

RRIRTRPPRLPRPRPRPRQIPRP
shrunken log2 fold change: 0.0896

RRIRGRPPRLPRPRPRPIDMPRP
shrunken log2 fold change: -0.0207

RRIRVRPPRLPRPRPRPAVQPRP
shrunken log2 fold change: -0.121

RRIRGRPPRLPRPRPRPIIQPRP
shrunken log2 fold change: 0.203

RRIRKRPPRLPRPRPRPWVIPRP
shrunken log2 fold change: -0.182

RRIRWRPPRLPRPRPRPTTSPRP
shrunken log2 fold change: 0.508

RRIRWRPPRLPRPRPRPFNQPRP
shrunken log2 fold change: -0.494

RRIRRRPPRLPRPRPRPWRAPRP
shrunken log2 fold change: 0.181

RRIRNRPPRLPRPRPRPILCPRP
shrunken log2 fold change: -0.174

RRIRRRPPRLPRPRPRPIWAPRP
shrunken log2 fold change: 0.0342

RRIRERPPRLPRPRPRPVGRPRP
shrunken log2 fold change: 0.233

RRIRFRPPRLPRPRPRPILKPRP
shrunken log2 fold change: -0.43

RRIRGRPPRLPRPRPRPYRYPRP
shrunken log2 fold change: 0.322

RRIRMRPPRLPRPRPRPGAYPRP
shrunken log2 fold change: 0.0666

RRIRTRPPRLPRPRPRPGSEPRP
shrunken log2 fold change: -0.0538

RRIRYRPPRLPRPRPRPCVYPRP
shrunken log2 fold change: -0.197

RRIRYRPPRLPRPRPRPDHYPRP
shrunken log2 fold change: -0.0219

RRIRFRPPRLPRPRPRPDLRPRP
shrunken log2 fold change: -0.108

RRIRNRPPRLPRPRPRPWPWPRP
shrunken log2 fold change: 0.0162

RRIRRRPPRLPRPRPRPYKLPRP
shrunken log2 fold change: -0.669

RRIRKRPPRLPRPRPRPLITPRP
shrunken log2 fold change: 0.0992

RRIRMRPPRLPRPRPRPADQPRP
shrunken log2 fold change: -0.0145

RRIRPRPPRLPRPRPRPIMQPRP
shrunken log2 fold change: -0.391

RRIRLRPPRLPRPRPRPICNPRP
shrunken log2 fold change: -0.243

RRIRIRPPRLPRPRPRPKQRPRP
shrunken log2 fold change: 0.0202

RRIRLRPPRLPRPRPRPPTFPRP
shrunken log2 fold change: 0.00353

RRIRNRPPRLPRPRPRPNACPRP
shrunken log2 fold change: -0.0239

RRIRMRPPRLPRPRPRPVCVPRP
shrunken log2 fold change: 0.241

RRIRHRPPRLPRPRPRPHQNPRP
shrunken log2 fold change: -0.494

RRIRRRPPRLPRPRPRPFGPPRP
shrunken log2 fold change: 0.165

RRIRWRPPRLPRPRPRPMHLPRP
shrunken log2 fold change: -0.317

RRIRQRPPRLPRPRPRPWPTPRP
shrunken log2 fold change: 0.00213

RRIRVRPPRLPRPRPRPKAKPRP
shrunken log2 fold change: 0.0989

RRIRFRPPRLPRPRPRPVQGPRP
shrunken log2 fold change: -0.169

RRIRSRPPRLPRPRPRPASDPRP
shrunken log2 fold change: 0.407

RRIRERPPRLPRPRPRPTECPRP
shrunken log2 fold change: -0.00173

RRIRLRPPRLPRPRPRPFWFPRP
shrunken log2 fold change: 0.0715

RRIRGRPPRLPRPRPRPSYCPRP
shrunken log2 fold change: 0.237

RRIRYRPPRLPRPRPRPVTFPRP
shrunken log2 fold change: -0.0285

RRIRDRPPRLPRPRPRPRHGPRP
shrunken log2 fold change: -0.0452

RRIRGRPPRLPRPRPRPAIPPRP
shrunken log2 fold change: -0.0508

RRIRMRPPRLPRPRPRPKAPPRP
shrunken log2 fold change: 1.42

RRIRGRPPRLPRPRPRPVIKPRP
shrunken log2 fold change: 0.0737

RRIRGRPPRLPRPRPRPHDVPRP
shrunken log2 fold change: 0.118

RRIRVRPPRLPRPRPRPDSTPRP
shrunken log2 fold change: -0.0391

RRIRARPPRLPRPRPRPCMRPRP
shrunken log2 fold change: 0.238
